The record followed here is patent publication US20040082509A1.

The target of the test is JNKs. Nature of the test: cell-based or functional assay.

With GRKKRRQRRRPPEEPHKHRPTTLRLTTLGAQDS [L-TAT-IB2 peptide], the phosphorylation of GST-jun (1-89) by JNKs pulled down from UV-irradiated HeLa or IL-1β treated βTC-3 cell extracts; peptide at 25 µM amounted to 25 µM.
In turn, GRKKRRQRRRPPDTYRPKRPTTLNLFPQVPRSQDT [L-TAT-IB1 peptide] yielded a phosphorylation of GST-jun (1-89) by JNKs pulled down from UV-irradiated HeLa or IL-1β treated βTC-3 cell extracts; peptide at 25 µM of 25 µM.
